# According to US8846363B2, “Compositions of and methods of using sulfatases from Flavobacterium heparinum” (priority 2007, dated 2014):
# B1: Flavobacterium heparinum N-sulfamidase (ORF C), recombinant, NH2-terminal truncation lacking signal sequence, SEQ ID NO: 4 (Pedobacter heparinus DSM 2366) (protein)
# chain: SCTSPEKKTDRPNILMIMSDNQSWNHVGSYGDQTVRTPNMDRIAKEGVRFTNAFCSSPSCTPARAGMLTGQDIWRLEDGGNLWGVLPVKYKVYPDLLEEAGYAIGFQGKGWGPGSFEANKRPRNPAGNEFKSFGAFLKDKKEGPWCYWISSHEPHRPYVEGSGEKAGIDPNKVKVPAYLPDHISIRKDIADYYAAVETFDRELGEALDQLKASGELDNTVIVVCSDNGWQMPRGLANLYDFGTHVPLIISWPGKFKQDVVADNLVTLNDLAPTFLQLGKVPVPADMTGKSLLPIVEAGKKDEKPRDYVVLGRERHAFVRRHGLGYPGRAIRTKDYLYIKNYEPNRWPAGDPPFYGDIDPYMFNWPGETKYYLIEHKDDPKVKSFFELGMGKRPAEELFDINKDPDELHNLAALPEYQKIKQELVAKLRNYLVATKDPRETNGNIQIWDTAAYFSEIDKTPKPSKEMQKRFKLDSSYNYLK
# notes: E. coli BL21(DE3), N-terminal 6xHis removed by thrombin
# B2: Flavobacterium heparinum 6-O-sulfatase (ORF B), recombinant, NH2-terminal truncation lacking signal sequence, SEQ ID NO: 2 (Pedobacter heparinus DSM 2366) (protein)
# chain: TLMSCQQPKPAESAKRPNIVFIMTDDHTIQAISAYGSKLVKTPNLDRIANEGMLFNNCFVTNAVCGPSRATILTGKYSHLNGLTDNSKVFDSTQVIYPQLLKKAGYQTAMIGKWHLGSTPMGFDYYSILPNQGQYYQPEFIENGHLVKEKGYVTDLITDKAIGFLEKRDHDKPFLMIYQHKAPHRNWLPAPRHLGMFDDTVFPEPANLLDDFKGRGRAAKEQLMNISTDMWPAWDLKMLSTAQLDSMAKLPVSPKFKDAKGDDYQQANDPSLDKARFFEVYNRMTDAEKVQWRKVYDKRVAEFKRLNPKGADLVRWKYQQYMRDYLACVVSVDENVGRLMDYLKKIGELDNTIIVYTSDQGFYLGEHGYFDKRFMYDESFRTPLMVRYPPSVKAGSVSNAFAMNLDFAPTLLDYAGVKIPADMQGLSLRPVLDNAGKSPENWRKAVYYHYYEFPSWHMVKRHYGIRTERYKLIHFYNDIDEWELYDMQKDPHEMQNLYNDKAYEPIIKDLKVQMKKLQVQYKDTNPTEAL
# notes: as for B1
# Columns and labels:
# Format in all cases: biochemical
# [1] = Sequential degradation of heparin oligosaccharide by exo-enzymes, MALDI-MS; details: after 2-O-sulfatase and Δ4,5 glycuronidase
# Procedure: The purified pentasulfated tetrasaccharide ΔU2SHNS,6SIHNS,6S was provided by Dr. I. Capila (Momenta Pharmaceuticals, Cambridge, Mass.). Enzyme sequence was as follows: 2-O-sulfatase→Δ4,5 glycuronidase→6-O-sulfatase→N-sulfamidase. After each step, the enzyme was heat inactivated and 20 μL aliquots removed prior to the addition of the next enzyme in the sequence. Initial reaction conditions included 20 mM Tris, pH 7.2 and 60 nanomoles of tetrasaccharide in a 120 μL reaction volume. All enzyme reactions were carried out at 30° C. Enzyme specific conditions included the following: 1) 2-O-sulfatase, 1 μM enzyme, 6 hours; 2) Δ4,5 glycuronidase, 1 μM enzyme, 6 hours; 3) 6-O-sulfatase, 5 μM enzyme, 5 mM CaCl2, 12-15 hours; 4) N-sulfamidase, same conditions as for 6-O-sulfatase. Molecular masses of enzyme products were determined by MALDI mass spectrometry using established methods (Rhomberg et al., 1998, Proc Natl Acad Sci USA 95, 12232-12237).
# [2] = Fluorimetric arylsulfatase assay using 4-MUS
# Procedure: Arylsulfatase activity was measured independently using two chromogenic substrates, 4-catechol-sulfate and 4-methylumbelliferyl-sulfate (4-MUS). The catechol substrate assay was conducted generally as described (Beil et al., 1995 Eur J Biochem 229, 385-394). Briefly, 10 mM substrate were incubated with ˜30 μM recombinant enzyme overnight (12-15 hours) at 37° C. in a 100 μL reaction which included 50 mM MES pH 7.0 and +2 mM CaCl2. Reactions were quenched by the addition of 5 μL 5M NaOH and colorimetric activity determined spectroscopically at 515 nm. Fluorimetric arylsulfatase assay using 4-MUS was as described (Morimoto-Tomita et al., 2002 J Biol Chem 277, 49175-85) with some modifications. Reaction conditions included 10 μM enzyme, 2 mM 4-MUS, 50 mM sodium acetate, pH 6.0, and 5 mM CaCl2 in a 20 μL reaction volume. The enzyme incubation temperature was 30° C. Activity was measured as a function of time ranging from 3 to 24 hours; the reactions were quenched by the addition of 200 μL 0.5 M Na2CO3, pH 10.7. Detection of fluorescent methylumbelliferone was measured at this alkaline pH using a SpectraMax microtiter plate reader ([…], Sunnyvale, Calif.) set at excitation and emission wavelengths of 360 and 440 nm, respectively. Fluorescence intensity was corrected against background (minus enzyme control). In both assays, 0.5 unit of arylsulfatase from Aerobacter aerogenes (Sigma, St. Louis, Mo.) was used as a positive control.
# [3] = Desulfation of unsaturated heparin disaccharides by capillary electrophoresis; details: ΔU±2SHNAc,6S, ΔU±2SHNS,6S (6-O-sulfatase); ΔU±2SHNS+6S (N-sulfamidase)
# Procedure: The ability of both enzymes to desulfate unsaturated heparin and chondroitin disaccharides was assessed essentially as described for capillary electrophoresis based compositional analyses of enzymatically generated glycosaminoglycan di- and tetra-saccharides (Venkataraman et al., 1999 Science 286, 537-542). For these studies, the following disaccharide substrates were tested: ΔUGlcNAc,6S; ΔU2SGlcNAc,6S; ΔUGlcNS; ΔUGlcNS,6S; ΔU2SGlcNS,6S; and ΔUGalNac,6S. Reactions included 500 μM substrate, 10 μM enzyme, 50 mM sodium acetate, pH 6.5 and +/−2 mM CaCl2 in a 20 μL reaction volume.
# [4] = Compositional analyses of sulfatase treated heparin; details: 8 hours preincubation, then heparinase I and III
# Procedure: 20 μg heparin were preincubated with 10 μM 6-O-sulfatase or N-sulfamidase for 8 hours at 30° C. in a 20 μL reaction which included 25 mM sodium acetate, pH 7.0 and 2 mM calcium acetate, pH 7.0. Following this preincubation, enzymes were inactivated by heat denaturation at 95° C. for 10 minutes and heparin exhaustively digested overnight at 37° C. by the addition of 2 μL of a concentrated enzyme cocktail containing heparinase I and III. Subsequent CE-based compositional analyses of heparinase-derived disaccharides were completed as described (Venkataraman et al., 1999 Science 286, 537-542).
# [5] = ESI mass spectrometry of desulfation of non-derivatized sulfated glucosamine monosaccharides
# Procedure: Electrospray ionization mass spectrometry was performed in the negative ion mode using an Agilent 1100 Series VL LC/MSD Trap. For simplicity, the samples were prepared by adding MeOH directly to the enzymatic reaction mixtures without purification and were directly injected into the source of the mass spectrometer using a syringe pump at a rate of ˜8 μl/min, The SPS function of the software (LC/MSD Trap Software 4.1 Build 143, MSD Trap Control Version 5.0 Build 65) was used to tune the instrument with the target mass set to the mass of the substrate, the sample stability set to 50% and the drive level set to 100%. Data were acquired over the scan range of 100-2200 m/z by accumulating 30,000 ions per scan. Capillary voltage was set to 3000 V. Nitrogen was used as the drying gas while helium was used as the nebulizing gas, with flow rates of 5 and 15 liters/min, respectively. In each case a minimum of ten spectra were averaged.
# For the experiments determining the order of action of the enzymes, reactions were carried out with 100 μM substrate, 2 mM CaCl2, 5 μM enzyme and various buffers at 37° C. overnight. Samples were diluted 1:10 in MeOH prior to analysis in the ESI, and the carrier solvent was H2O:MeOH (1:10, v/v). For the time course experiments showing desulfation of different unlabeled monosaccharides, reactions were carried out with 2.5 mM substrate, 5 mM CaCl2, 1 μM enzyme and 50 mM acetate buffer at pH 5.5 for the 6-O-sulfatase and pH 6.0 for the N-sulfamidase at 37° C. Reactions were quenched by diluting the samples 1:4 in MeOH. The carrier solvent was H2O:MeOH (1:4, v/v). In these experiments, 4-MU-GlcNS was added prior to injection as an internal standard to monitor ionization efficiency and mass accuracy within the source and trap.
molecule,measurement,setting,value
B1,desulfation of the trisaccharides at the non-reducing end,[1],not able to do so
same,hydrolysis of 4-MU sulfate,[2],only negligible activity
same,desulfation of unsaturated heparin disaccharides,[3],None of the unsaturated disaccharides were desulfated
same,effect of sulfatase pretreatment of unfractionated heparin on heparinase-derived cleavage products,[4],no effect on the compositional profile
same,effect of the presence of a 3-O-sulfate,[5],completely inhibited
same,activity at the 2-amino position when a second sulfate at the 6-O position is present,"[5]; substrate HNS,6S",absolutely abolished
B2,desulfation of the trisaccharides at the non-reducing end,[1],able to singularly desulfate both trisaccharides
same,hydrolysis of 4-MU sulfate,[2],partly hydrolyze
same,rate of 4-MU sulfate hydrolysis relative to the ORF C protein,[2],at least 3 fold
same,desulfation of unsaturated heparin disaccharides,[3],None of the unsaturated disaccharides were desulfated
same,effect of sulfatase pretreatment of unfractionated heparin on heparinase-derived cleavage products,[4],no effect on the compositional profile
same,effect of the presence of a 3-O-sulfate,[5],completely inhibited
same,requirement at the 2-amino position of glucosamine,[5],required a substituted amine (acetate or sulfate) at the 2-amino position
same,"comparative kinetic analysis GlcNAc,6S vs. GlcNS,6S",[5]; time course,only a modest preference of the enzyme for the monosulfated substrate
